# Residue numbers refer to the chain shown, from its start.
# B1: deimmunized humanized antibody huAbF46 including a combination of AT-VH3 and AT-Vk2 (antibody, IgG1, V domains shown)
# VH: EVQLVESGGGLVQPGGSLRLSCATSGFTFTDYYMSWVRQPPGKGLEWLGFIRNKANGYTTEYSASVKGRFTISRDNSKSTLYLQMNSLRAEDTATYYCARDNWFAYWGQGTLVTVSS
# VL: DILMTQSPSSLSASVGDRVTITCKSSQSLLASGNQNNYLAWHQQKPGKAPKMLIIWASTRVSGVPDRFIGSGSGTDFTLTISSLQAEDVAVYYCQQSYSAPLTFGQGTKLEIK
# notes: expressed from pANTVhG1 and pANTVk vectors (IgG1, kappa) in HEK293 cells; also called AT-VH3/AT-Vk2
# B2: deimmunized humanized antibody huAbF46 including a combination of AT-VH2 and AT-Vk2 (antibody, IgG1, V domains shown)
# VH: B1 VH with Q3K
# VL: B1 VL
# notes: expressed from pANTVhG1 and pANTVk vectors (IgG1, kappa) in HEK293 cells; also called AT-VH2/AT-Vk2
# B3: deimmunized humanized antibody huAbF46 including a combination of AT-VH1 and AT-Vk3 (antibody, IgG1, V domains shown)
# VH: B1 VH with Q3K, T93S
# VL: B1 VL with L3Q
# notes: expressed from pANTVhG1 and pANTVk vectors (IgG1, kappa) in HEK293 cells; also called AT-VH1/AT-Vk3
# B4: deimmunized humanized antibody huAbF46 including a combination of AT-VH5 and AT-Vk1 (antibody, IgG1, V domains shown)
# VH: B1 VH with S79N, T95V
# VL: B1 VL with S12T, I21M
# notes: expressed from pANTVhG1 and pANTVk vectors (IgG1, kappa) in HEK293 cells; also called AT-VH5/AT-Vk1
# B5: deimmunized humanized antibody huAbF46 including a combination of AT-VH4 and AT-Vk2 (antibody, IgG1, V domains shown)
# VH: B1 VH with S79N
# VL: B1 VL
# notes: expressed from pANTVhG1 and pANTVk vectors (IgG1, kappa) in HEK293 cells; also called AT-VH4/AT-Vk2
# B6: deimmunized humanized antibody huAbF46 including a combination of AT-VH1 and AT-Vk4 (antibody, IgG1, V domains shown)
# VH: B1 VH with Q3K, T93S
# VL: B1 VL with L3Q, I69S
# notes: expressed from pANTVhG1 and pANTVk vectors (IgG1, kappa) in HEK293 cells; also called AT-VH1/AT-Vk4
# B7: deimmunized humanized antibody huAbF46 including a combination of AT-VH3 and AT-Vk3 (antibody, IgG1, V domains shown)
# VH: B1 VH
# VL: B1 VL with L3Q
# notes: expressed from pANTVhG1 and pANTVk vectors (IgG1, kappa) in HEK293 cells; also called AT-VH3/AT-Vk3
# B8: deimmunized humanized antibody huAbF46 including a combination of AT-VH5 and AT-Vk4 (antibody, IgG1, V domains shown)
# VH: B1 VH with S79N, T95V
# VL: B1 VL with L3Q, I69S
# notes: expressed from pANTVhG1 and pANTVk vectors (IgG1, kappa) in HEK293 cells; also called AT-VH5/AT-Vk4
# B9: deimmunized humanized antibody huAbF46 including a combination of AT-VH1 and AT-Vk1 (antibody, IgG1, V domains shown)
# VH: B1 VH with Q3K, T93S
# VL: B1 VL with S12T, I21M
# notes: expressed from pANTVhG1 and pANTVk vectors (IgG1, kappa) in HEK293 cells; also called AT-VH1/AT-Vk1
# B10: deimmunized humanized antibody huAbF46 including a combination of AT-VH4 and AT-Vk1 (antibody, IgG1, V domains shown)
# VH: B1 VH with S79N
# VL: B1 VL with S12T, I21M
# notes: expressed from pANTVhG1 and pANTVk vectors (IgG1, kappa) in HEK293 cells; also called AT-VH4/AT-Vk1
# B11: deimmunized humanized antibody huAbF46 including a combination of AT-VH1 and AT-Vk2 (antibody, IgG1, V domains shown)
# VH: B1 VH with Q3K, T93S
# VL: B1 VL
# notes: expressed from pANTVhG1 and pANTVk vectors (IgG1, kappa) in HEK293 cells; also called AT-VH1/AT-Vk2
# B12: deimmunized humanized antibody huAbF46 including a combination of AT-VH4 and AT-Vk3 (antibody, IgG1, V domains shown)
# VH: B1 VH with S79N
# VL: B1 VL with L3Q
# notes: expressed from pANTVhG1 and pANTVk vectors (IgG1, kappa) in HEK293 cells; also called AT-VH4/AT-Vk3
# B13: deimmunized humanized antibody huAbF46 including a combination of AT-VH2 and AT-Vk4 (antibody, IgG1, V domains shown)
# VH: B1 VH with Q3K
# VL: B1 VL with L3Q, I69S
# notes: expressed from pANTVhG1 and pANTVk vectors (IgG1, kappa) in HEK293 cells; also called AT-VH2/AT-Vk4
# B14: deimmunized humanized antibody huAbF46 including a combination of AT-VH2 and AT-Vk1 (antibody, IgG1, V domains shown)
# VH: B1 VH with Q3K
# VL: B1 VL with S12T, I21M
# notes: expressed from pANTVhG1 and pANTVk vectors (IgG1, kappa) in HEK293 cells; also called AT-VH2/AT-Vk1
# B15: deimmunized humanized antibody huAbF46 including a combination of AT-VH3 and AT-Vk4 (antibody, IgG1, V domains shown)
# VH: B1 VH
# VL: B1 VL with L3Q, I69S
# notes: expressed from pANTVhG1 and pANTVk vectors (IgG1, kappa) in HEK293 cells; also called AT-VH3/AT-Vk4
# B16: deimmunized humanized antibody huAbF46 including a combination of AT-VH4 and AT-Vk4 (antibody, IgG1, V domains shown)
# VH: B1 VH with S79N
# VL: B1 VL with L3Q, I69S
# notes: expressed from pANTVhG1 and pANTVk vectors (IgG1, kappa) in HEK293 cells; also called AT-VH4/AT-Vk4
# B17: deimmunized humanized antibody huAbF46 including a combination of AT-VH5 and AT-Vk3 (antibody, IgG1, V domains shown)
# VH: B1 VH with S79N, T95V
# VL: B1 VL with L3Q
# notes: expressed from pANTVhG1 and pANTVk vectors (IgG1, kappa) in HEK293 cells; also called AT-VH5/AT-Vk3
# B18: deimmunized humanized antibody huAbF46 including a combination of AT-VH5 and AT-Vk2 (antibody, IgG1, V domains shown)
# VH: B1 VH with S79N, T95V
# VL: B1 VL
# notes: expressed from pANTVhG1 and pANTVk vectors (IgG1, kappa) in HEK293 cells; also called AT-VH5/AT-Vk2
# B19: deimmunized humanized antibody huAbF46 including a combination of AT-VH2 and AT-Vk3 (antibody, IgG1, V domains shown)
# VH: B1 VH with Q3K
# VL: B1 VL with L3Q
# notes: expressed from pANTVhG1 and pANTVk vectors (IgG1, kappa) in HEK293 cells; also called AT-VH2/AT-Vk3
# B20: deimmunized humanized antibody huAbF46 including a combination of AT-VH3 and AT-Vk1 (antibody, IgG1, V domains shown)
# VH: B1 VH
# VL: B1 VL with S12T, I21M
# notes: expressed from pANTVhG1 and pANTVk vectors (IgG1, kappa) in HEK293 cells; also called AT-VH3/AT-Vk1
# B21: chimeric antibody chAbF46 (antibody, V domains shown)
# VH: B1 VH with Q3K, G44A, K78Q, T80I, N86D, S87T, T93S, S117A
# VL: DILMTQSPSSLTVSAGEKVTMSCKSSQSLLASGNQNNYLAWHQQKPGRSPKMLIIWASTRVSGVPDRFIGSGSGTDFTLTINSVQAEDLAVYYCQQSYSAPLTFGAGTKLELKR
# Target: T1, human c-Met/Fc fusion protein (R&D Systems) (human, UniProt P08581 25-932)
# T1 construct: Bought reagent; also called c-Met/Fc chimera (R&D Systems Cat. No. 358-MT/CF); not shown: Fc part of the bought fusion
# Experiment: competition ELISA on coated c-Met/Fc; competitor biotinylated chAbF46 (0.1 ug/ml)
# Procedure: The antigens were coated by overnight incubation at a temperature of 4° C. using Nunc Immuno MaxiSort 96 well flat bottom microtiter plate (Fisher Cat. No. DIS-971-030J) and 1.0 μg/ml and 100 μl/well of c-Met/Fc chimera (R&D Systems Cat. No. 358-MT/CF). chAbF46 and 20 humanized antibodies were diluted and at a concentration of 10 μg/ml to 0.078 μg/ml, they were mixed with biotinylated chAbF46 (0.1 μg/ml, final conc.), followed by incubation at a temperature of 37° C. for 2 hours. The amount of biotinylated chAbF46 antibody binding to the antigen was measured using streptavidin-HRP (Sigma cat. No S5512) and an OPD substrate (Sigma Cat. No. P9187), and IC50 data were calculated from the results and the data are shown in Table 1 below (all units in nM).
# T1 sequence (P08581 25-932 limits assumed): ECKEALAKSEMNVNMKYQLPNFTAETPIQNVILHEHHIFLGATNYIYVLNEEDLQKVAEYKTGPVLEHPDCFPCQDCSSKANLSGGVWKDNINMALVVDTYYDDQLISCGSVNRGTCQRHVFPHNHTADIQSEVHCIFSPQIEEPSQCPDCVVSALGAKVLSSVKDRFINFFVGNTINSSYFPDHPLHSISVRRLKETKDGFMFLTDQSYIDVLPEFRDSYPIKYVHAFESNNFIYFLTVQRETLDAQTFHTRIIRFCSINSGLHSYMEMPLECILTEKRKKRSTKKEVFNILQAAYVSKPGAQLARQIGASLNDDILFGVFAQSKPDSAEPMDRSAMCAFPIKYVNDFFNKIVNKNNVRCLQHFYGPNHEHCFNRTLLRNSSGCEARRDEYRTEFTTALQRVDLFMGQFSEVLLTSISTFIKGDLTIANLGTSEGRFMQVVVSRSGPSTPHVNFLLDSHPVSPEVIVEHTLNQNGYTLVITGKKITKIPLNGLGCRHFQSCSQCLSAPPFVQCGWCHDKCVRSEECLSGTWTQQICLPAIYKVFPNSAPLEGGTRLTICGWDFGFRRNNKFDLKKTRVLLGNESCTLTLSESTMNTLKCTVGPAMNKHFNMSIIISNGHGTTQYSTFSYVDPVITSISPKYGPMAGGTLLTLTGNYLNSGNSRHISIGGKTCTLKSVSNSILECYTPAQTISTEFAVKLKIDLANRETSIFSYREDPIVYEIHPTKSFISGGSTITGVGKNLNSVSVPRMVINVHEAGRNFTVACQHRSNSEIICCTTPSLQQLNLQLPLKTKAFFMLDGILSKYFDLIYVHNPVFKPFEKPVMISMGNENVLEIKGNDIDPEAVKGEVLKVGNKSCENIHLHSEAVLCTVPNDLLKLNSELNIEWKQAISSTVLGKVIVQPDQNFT
row,Binder,IC50 [nM]
1,B1,4.5
2,B2,1.28
3,B3,2.3
4,B4,2.04
5,B5,3.13
6,B6,1.51
7,B7,5.51
8,B8,1.62
9,B9,1.48
10,B10,2.4
11,B11,1.49
12,B12,1.99
13,B13,1.37
14,B14,2.3
15,B15,1.81
16,B16,1.41
17,B17,1.57
18,B18,1.46
19,B19,1.69
20,B20,3.53

# Target: T2, human c-Met protein antigen (human, UniProt P08581 25-932, limits assumed)
# T2 construct: also called c-Met antigen
# Experiment: Biacore SPR, antibody immobilized on CM5 chip, human c-Met protein injected
# T2 sequence (P08581 25-932 limits assumed): as above
row,Binder,Kd [nM]
1,B21,4.27

# Source: patent publication US20130164281A1 (SAMSUNG ELECTRONICS, published 2013)
